{"source": "patent US20120238493A1", "about": "(INDIANA UNIVERSITY RESEARCH AND TECHNOLOGY, published 2012)", "experiment_in_all_cases": "cell-based or functional assay", "key": {"[1]": {"molecular_target": "T1, GIP receptor (UniProt P48546 22-466, limits assumed)", "T1 sequence (looked up)": "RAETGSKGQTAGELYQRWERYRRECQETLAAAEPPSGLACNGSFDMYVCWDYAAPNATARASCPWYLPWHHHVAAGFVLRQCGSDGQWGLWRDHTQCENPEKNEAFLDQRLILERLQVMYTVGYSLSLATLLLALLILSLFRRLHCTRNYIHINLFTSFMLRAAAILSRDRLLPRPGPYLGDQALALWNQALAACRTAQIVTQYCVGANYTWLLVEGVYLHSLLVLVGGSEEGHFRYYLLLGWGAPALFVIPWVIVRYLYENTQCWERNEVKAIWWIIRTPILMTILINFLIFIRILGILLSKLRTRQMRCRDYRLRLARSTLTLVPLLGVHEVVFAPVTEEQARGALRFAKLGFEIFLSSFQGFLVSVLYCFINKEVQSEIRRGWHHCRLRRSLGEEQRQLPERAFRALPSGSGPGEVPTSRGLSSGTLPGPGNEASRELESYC"}, "[2]": {"molecular_target": "T1, GIP receptor", "remark": "listed apart in the source"}, "[3]": {"molecular_target": "T2, glucagon receptor (UniProt P47871 26-477, limits assumed)", "T2 sequence (P47871 26-477 limits assumed)": "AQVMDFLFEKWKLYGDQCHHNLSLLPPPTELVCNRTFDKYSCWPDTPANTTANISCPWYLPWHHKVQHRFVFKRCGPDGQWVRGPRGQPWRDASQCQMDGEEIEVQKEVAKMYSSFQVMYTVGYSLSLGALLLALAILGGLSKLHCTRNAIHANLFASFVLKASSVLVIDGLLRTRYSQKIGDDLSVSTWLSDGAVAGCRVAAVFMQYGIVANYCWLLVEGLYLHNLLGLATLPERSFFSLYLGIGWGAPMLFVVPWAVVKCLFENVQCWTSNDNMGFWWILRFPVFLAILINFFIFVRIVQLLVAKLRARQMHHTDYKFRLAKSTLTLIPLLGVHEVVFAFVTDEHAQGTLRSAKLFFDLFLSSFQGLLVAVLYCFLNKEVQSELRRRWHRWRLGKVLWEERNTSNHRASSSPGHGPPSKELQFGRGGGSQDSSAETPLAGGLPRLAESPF"}, "[4]": {"molecular_target": "T3, GLP-1 receptor (UniProt P43220 24-463, limits assumed)"}, "[5]": {"molecular_target": "T1, GIP receptor", "remark": "listed apart in the source"}, "[6]": {"molecular_target": "T2, glucagon receptor", "remark": "listed apart in the source"}, "[7]": {"molecular_target": "T3, GLP-1 receptor", "remark": "listed apart in the source"}, "[8]": {"molecular_target": "T1, GIP receptor", "remark": "listed apart in the source"}, "[9]": {"molecular_target": "T2, glucagon receptor", "remark": "listed apart in the source"}, "[10]": {"molecular_target": "T3, GLP-1 receptor", "remark": "listed apart in the source"}, "[11]": {"molecular_target": "T1, GIP receptor", "remark": "listed apart in the source"}, "[12]": {"molecular_target": "T2, glucagon receptor", "remark": "listed apart in the source"}, "[13]": {"molecular_target": "T3, GLP-1 receptor", "remark": "listed apart in the source"}, "[14]": {"molecular_target": "T1, GIP receptor", "remark": "listed apart in the source"}, "[15]": {"molecular_target": "T2, glucagon receptor", "remark": "listed apart in the source"}, "[16]": {"molecular_target": "T3, GLP-1 receptor", "remark": "listed apart in the source"}, "[17]": {"molecular_target": "T1, GIP receptor", "remark": "listed apart in the source"}, "[18]": {"molecular_target": "T2, glucagon receptor", "remark": "listed apart in the source"}, "[19]": {"molecular_target": "T3, GLP-1 receptor", "remark": "listed apart in the source"}, "[20]": {"molecular_target": "T1, GIP receptor", "remark": "listed apart in the source"}, "[21]": {"molecular_target": "T2, glucagon receptor", "remark": "listed apart in the source"}, "[22]": {"molecular_target": "T3, GLP-1 receptor", "remark": "listed apart in the source"}, "[23]": {"molecular_target": "T1, GIP receptor", "remark": "listed apart in the source"}}, "note": "Where two headings read alike, the source gives them in different places. *1 amine or outer side, *2 acyl side, *3 side chain or, on linkers, in order; H or OH if unused. Where no end group is shown, it is not given here. Side-chain parts run from the residue outwards. [ ]: non-standard residue; d: D form. The star is where a group is joined. γGlu = O=C(O)[C@H](CCC(=O)[*:2])N[*:1]; Palmitoyl = CCCCCCCCCCCCCCCC(=O)*; Aib = CC(C)(N)C(=O)O", "data": [{"molecule": "Native GIP (SEQ ID NO: 2) (from UniProt P09681 52-93) (ligand)", "values": [{"measurement": "EC50 (cAMP reporter)", "setting": "[1]", "value": 10, "unit": "pM"}, {"measurement": "EC50 (cAMP reporter)", "setting": "[2]", "value": 6.5, "unit": "pM"}]}, {"molecule": "H[Aib]QGTFTSDK([γGlu-Palmitoyl])SKYLDERAAQDFVQWLLDGGPSSGAPPPS-NH2", "note": "[Analog No. 30: Aib2, K10acyl, E16, A18, L27, D28, G29 + CEX (SEQ ID NO: 28)]", "values": [{"measurement": "EC50 (cAMP reporter)", "setting": "[3]", "value": 2, "unit": "pM"}, {"measurement": "EC50 (cAMP reporter)", "setting": "[4]", "value": 2, "unit": "pM"}, {"measurement": "EC50 (cAMP reporter)", "setting": "[5]", "value": 3, "unit": "pM"}, {"measurement": "EC50 (cAMP reporter)", "setting": "[6]", "value": 2, "unit": "pM"}, {"measurement": "EC50 (cAMP reporter)", "setting": "[7]", "value": 2, "unit": "pM"}, {"measurement": "EC50 (cAMP reporter)", "setting": "[8]", "value": 3, "unit": "pM"}, {"measurement": "activity (cAMP reporter), column Glu", "setting": "[9]", "value": 0.002}, {"measurement": "activity (cAMP reporter), column GLP", "setting": "[10]", "value": 0.002}, {"measurement": "activity (cAMP reporter), column GIP", "setting": "[11]", "value": 0.003}, {"measurement": "EC50 (cAMP, nmole)", "setting": "[12]", "value": 0.004, "unit": "nmol"}, {"measurement": "EC50 (cAMP, nmole)", "setting": "[13]", "value": 0.003, "unit": "nmol"}, {"measurement": "EC50 (cAMP, nmole)", "setting": "[14]", "value": 0.007, "unit": "nmol"}, {"measurement": "EC50 (cAMP reporter)", "setting": "[15]", "value": 2, "unit": "pM"}, {"measurement": "EC50 (cAMP reporter)", "setting": "[16]", "value": 2, "unit": "pM"}, {"measurement": "EC50 (cAMP reporter)", "setting": "[17]", "value": 2, "unit": "pM"}, {"measurement": "EC50 (cAMP reporter)", "setting": "[18]", "value": 3, "unit": "pM"}, {"measurement": "EC50 (cAMP reporter)", "setting": "[19]", "value": 4, "unit": "pM"}, {"measurement": "EC50 (cAMP reporter)", "setting": "[20]", "value": 4, "unit": "pM"}]}, {"molecule": "H[Aib]QGTFTSDYSIYLDEKRAKEFVCWLLAGGPSSGAPPPSK-NH2 (N-terminus assumed; SMILES CC[C@H](C)[C@H](NC(=O)[C@H](CO)NC(=O)[C@H](Cc1ccc(O)cc1)NC(=O)[C@H](CC(=O)O)NC(=O)[C@H](CO)NC(=O)[C@@H](NC(=O)[C@H](Cc1ccccc1)NC(=O)[C@@H](NC(=O)CNC(=O)[C@H](CCC(N)=O)NC(=O)C(C)(C)NC(=O)[C@@H](N)Cc1c[nH]cn1)[C@@H](C)O)[C@@H](C)O)C(=O)N[C@@H](Cc1ccc(O)cc1)C(=O)N[C@@H](CC(C)C)C(=O)N[C@@H](CC(=O)O)C(=O)N[C@@H](CCC(=O)O)C(=O)N[C@@H](CCCCN)C(=O)N[C@@H](CCCNC(=N)N)C(=O)N[C@@H](C)C(=O)N[C@@H](CCCCN)C(=O)N[C@@H](CCC(=O)O)C(=O)N[C@@H](Cc1ccccc1)C(=O)N[C@H](C(=O)N[C@@H](CS)C(=O)N[C@@H](Cc1c[nH]c2ccccc12)C(=O)N[C@@H](CC(C)C)C(=O)N[C@@H](CC(C)C)C(=O)N[C@@H](C)C(=O)NCC(=O)NCC(=O)N1CCC[C@H]1C(=O)N[C@@H](CO)C(=O)N[C@@H](CO)C(=O)NCC(=O)N[C@@H](C)C(=O)N1CCC[C@H]1C(=O)N1CCC[C@H]1C(=O)N1CCC[C@H]1C(=O)N[C@@H](CO)C(=O)N[C@@H](CCCCN)C(N)=O)C(C)C)", "note": "[peptide of SEQ ID NO: 230]", "values": [{"measurement": "EC50 (cAMP reporter)", "setting": "[21]", "value": 1640, "unit": "pM"}, {"measurement": "EC50 (cAMP reporter)", "setting": "[22]", "value": 222, "unit": "pM"}, {"measurement": "EC50 (cAMP reporter)", "setting": "[23]", "value": 164, "unit": "pM"}]}]}
